Test results: article PMC9712776
Residue numbers refer to the chain shown, from its start. Names may count otherwise.

T1: GST-tagged SH3 domain of Bin1
T1 chain: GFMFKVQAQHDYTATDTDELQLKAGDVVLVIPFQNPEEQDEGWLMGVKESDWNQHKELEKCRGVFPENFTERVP

B1: dynamin-2 (human Dyn2 isoform 1), wild type, P50570 S848A (protein)
chain: MGNRGMEELIPLVNKLQDAFSSIGQSCHLDLPQIAVVGGQSAGKSSVLENFVGRDFLPRGSGIVTRRPLILQLIFSKTEHAEFLHCKSKKFTDFDEVRQEIEAETDRVTGTNKGISPVPINLRVYSPHVLNLTLIDLPGITKVPVGDQPPDIEYQIKDMILQFISRESSLILAVTPANMDLANSDALKLAKEVDPQGLRTIGVITKLDLMDEGTDARDVLENKLLPLRRGYIGVVNRSQKDIEGKKDIRAALAAERKFFLSHPAYRHMADRMGTPHLQKTLNQQLTNHIRESLPALRSKLQSQLLSLEKEVEEYKNFRPDDPTRKTKALLQMVQQFGVDFEKRIEGSGDQVDTLELSGGARINRIFHERFPFELVKMEFDEKDLRREISYAIKNIHGVRTGLFTPDLAFEAIVKKQVVKLKEPCLKCVDLVIQELINTVRQCTSKLSSYPRLREETERIVTTYIREREGRTKDQILLLIDIEQSYINTNHEDFIGFANAQQRSTQLNKKRAIPNQGEILVIRRGWLTINNISLMKGGSKEYWFVLTAESLSWYKDEEEKEKKYMLPLDNLKIRDVEKGFMSNKHVFAIFNTEQRNVYKDLRQIELACDSQEDVDSWKASFLRAGVYPEKDQAENEDGAQENTFSMDPQLERQVETIRNLVDSYVAIINKSIRDLMPKTIMHLMINNTKAFIHHELLAYLYSSADQSSLMEESADQAQRRDDMLRMYHALKEALNIIGDISTSTVSTPVPPPVDDTWLQSASSHSPTPQRRPVSSIHPPGRPPAVRGPTPGPPLIPVPVGAAASFSAPPIPSRPGPQSVFANSDLFPAPPQIPSRPVRIPPGIPPGVPARRPPAAPSRPTIIRPAEPSLLD
B2: dynamin-2 (human Dyn2 isoform 1), wild type, P50570 S848E (protein)
chain: B1 chain with A848E
B3: dynamin-2 (human Dyn2 isoform 1), wild type, P50570 S856A (protein)
chain: B1 chain with A848S, S856A
B4: dynamin-2 (human Dyn2 isoform 1), wild type, P50570 S856E (protein)
chain: B1 chain with A848S, S856E

Target: T1, GST-tagged SH3 domain of Bin1
Experiment: GST pulldown
Conditions: chain shown with the change; 12 µg GST-Bin-SH3, 6 µg purified Dyn2; parent: 1.0; read off a plot
In the case of B1, the ratio to parent is reported as 0.86.
Work on B2 yielded a ratio to parent of 0.42.

Same assay, conditions: chain shown with the change;; parent: 1.0; read off a plot
B1 gave a ratio to parent of 1.2.
B3 gave a ratio to parent of 1.1.
Binder B4 has a ratio to parent of 1.
Binder B2 has a ratio to parent of 0.66.
